Assay results reported in US20260274981A1 (VIB VZW, published 2026).
Where a chain is given by its changes, count along the chain named. Each block holds one binder with its values, some of them ahead of it.

Tests used:
[1] = target: T1, recombinant human TfR (2474-TR, R&D Systems), biotinylated (human, UniProt P02786 89-760, biotinylated with EZ-Link NHS-PEG4-Biotinylation Kit); assay: SPR (Biacore), biotinylated human TfR captured on an SA chip, VHH injected, 1:1 dissociation fit, pH 5.5
T1 construct: Bought protein; also called immobilized recombinant human TfR; biotinylated human TfR
Procedure: (§1) In brief, DNA was synthesized by Genscript (Piscataway, New Jersey, United States) and cloned into an E. coli compatible expression plasmid according to standard methods. E. coli TG1 bacteria were transformed with those plasmids and expressions induced. Crude extracts were prepared and analyzed for binding by flow cytometry on human TfR overexpressing cells. […] Next, off rates of these selected variants were determined on recombinant human TfR by surface plasmon resonance (Biacore, Marlborough, Massachusetts, United States). Biotinylated human TfR was captured on a streptavidin-coated SA sensor chip (Cytiva). Increasing concentrations of nanobodies were sequentially injected in a single cycle at a flow rate of 30 μL/min. The dissociation was monitored for around 20 min. A reference flow was used as a control for non-specific binding and refractive index changes. Several buffer blanks were used for double referencing. Off rates were derived after fitting the experimental data to the 1:1 binding model with the Biacore Evaluation Software.

[2] = target: T1, recombinant human TfR (2474-TR, R&D …); assay: SPR (Biacore), ratio of the off rates on human TfR at the two pH values; the printed number equals kd at pH 5.5 divided by kd at pH 7.4
Procedure: as §1

[3] = target: T1, recombinant human TfR (2474-TR, R&D …); assay: SPR (Biacore), biotinylated human TfR captured on an SA chip, VHH injected, 1:1 dissociation fit, pH 7.4
Procedure: as §1

T1 sequence (P02786 89-760 limits assumed): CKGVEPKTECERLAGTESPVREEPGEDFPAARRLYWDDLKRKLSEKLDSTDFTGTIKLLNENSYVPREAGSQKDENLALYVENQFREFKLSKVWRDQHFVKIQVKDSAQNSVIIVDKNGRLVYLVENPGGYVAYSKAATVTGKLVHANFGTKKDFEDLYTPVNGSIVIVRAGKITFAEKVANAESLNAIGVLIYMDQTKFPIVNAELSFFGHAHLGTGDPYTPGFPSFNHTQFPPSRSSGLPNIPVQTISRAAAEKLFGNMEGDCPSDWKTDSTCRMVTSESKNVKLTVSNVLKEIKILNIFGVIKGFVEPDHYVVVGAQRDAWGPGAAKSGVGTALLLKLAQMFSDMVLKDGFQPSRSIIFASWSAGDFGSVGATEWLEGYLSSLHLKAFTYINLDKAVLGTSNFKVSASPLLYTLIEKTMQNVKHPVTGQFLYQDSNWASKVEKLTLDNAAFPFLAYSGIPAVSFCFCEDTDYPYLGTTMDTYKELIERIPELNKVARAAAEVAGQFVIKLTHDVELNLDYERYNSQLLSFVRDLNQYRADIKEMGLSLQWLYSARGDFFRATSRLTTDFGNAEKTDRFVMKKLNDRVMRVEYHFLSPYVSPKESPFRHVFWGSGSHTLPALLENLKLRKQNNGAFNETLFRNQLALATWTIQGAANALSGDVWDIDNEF

- koff [1]: 0.00946 s⁻¹
- off-rate ratio kd pH5.5/kd pH7.4 [2]: 1.74
- koff [3]: 0.00545 s⁻¹
B1: BBB00677 (VHH)
VHH: EVQLVESGGGSVQPGGSLRLSCTASGRTFNYAMGWFRQAPGKNREFVATIDWKDGSSYYLDSVRGRFTIERDDAKNTVYLQMNSLRPEDAAVYTCAVGDGDYCSTYTCAAEVEYDYWGQGTLVTVSS
notes: also called variant of BBB00533

- koff [1]: 0.0109 s⁻¹
- off-rate ratio kd pH5.5/kd pH7.4 [2]: 2.15
- koff [3]: 0.00506 s⁻¹
B2: BBB00698 (VHH)
VHH: B1 VHH with N30H
notes: also called histidine mutant of BBB00515

- koff [1]: 0.0086 s⁻¹
- off-rate ratio kd pH5.5/kd pH7.4 [2]: 1.57
- koff [3]: 0.00547 s⁻¹
B3: BBB00708 (VHH)
VHH: B1 VHH with D54H
notes: Histidine mutant

- koff [1]: 0.0154 s⁻¹
- off-rate ratio kd pH5.5/kd pH7.4 [2]: 2.21
- koff [3]: 0.00695 s⁻¹
B4: BBB00718 (VHH)
VHH: B1 VHH with S104H
notes: as for B2

- koff [1]: 0.00937 s⁻¹
- off-rate ratio kd pH5.5/kd pH7.4 [2]: 1.84
- koff [3]: 0.00511 s⁻¹
B5: BBB00709 (VHH)
VHH: B1 VHH with G55H
notes: as for B2

- koff [1]: 0.00911 s⁻¹
- off-rate ratio kd pH5.5/kd pH7.4 [2]: 2.55
- koff [3]: 0.00358 s⁻¹
B6: BBB00704 (VHH)
VHH: B1 VHH with I50H
notes: as for B2

- koff [1]: 0.0127 s⁻¹
- off-rate ratio kd pH5.5/kd pH7.4 [2]: 1.62
- koff [3]: 0.00787 s⁻¹
B7: BBB00728 (VHH)
VHH: B1 VHH with D115H
notes: Histidine mutant

- koff [1]: 0.00904 s⁻¹
- off-rate ratio kd pH5.5/kd pH7.4 [2]: 1.7
- koff [3]: 0.00533 s⁻¹
B8: BBB00716 (VHH)
VHH: B1 VHH with D101H
notes: Histidine mutant

- koff [1]: 0.0126 s⁻¹
- off-rate ratio kd pH5.5/kd pH7.4 [2]: 2.84
- koff [3]: 0.00444 s⁻¹
B9: BBB00710 (VHH)
VHH: B1 VHH with S56H
notes: as for B2

- koff [1]: 0.00728 s⁻¹
- off-rate ratio kd pH5.5/kd pH7.4 [2]: 1.35
- koff [3]: 0.00538 s⁻¹
B10: BBB00694 (VHH)
VHH: B1 VHH with G26H
notes: Histidine mutant

- koff [1]: 0.0113 s⁻¹
- off-rate ratio kd pH5.5/kd pH7.4 [2]: 2.01
- koff [3]: 0.00562 s⁻¹
B11: BBB00729 (VHH)
VHH: B1 VHH with Y116H
notes: as for B2

- koff [1]: 0.00858 s⁻¹
- off-rate ratio kd pH5.5/kd pH7.4 [2]: 1.64
- koff [3]: 0.00524 s⁻¹
B12: BBB00699 (VHH)
VHH: B1 VHH with Y31H
notes: Histidine mutant

- koff [1]: 0.00874 s⁻¹
- off-rate ratio kd pH5.5/kd pH7.4 [2]: 1.51
- koff [3]: 0.00577 s⁻¹
B13: BBB00695 (VHH)
VHH: B1 VHH with R27H
notes: Histidine mutant

- koff [1]: 0.0091 s⁻¹
- off-rate ratio kd pH5.5/kd pH7.4 [2]: 1.55
- koff [3]: 0.00586 s⁻¹
B14: BBB00719 (VHH)
VHH: B1 VHH with T105H
notes: Histidine mutant

- koff [1]: 0.00632 s⁻¹
- off-rate ratio kd pH5.5/kd pH7.4 [2]: 1.44
- koff [3]: 0.00439 s⁻¹
B15: BBB00707 (VHH)
VHH: B1 VHH with K53H
notes: Histidine mutant

- koff [1]: 0.0107 s⁻¹
- off-rate ratio kd pH5.5/kd pH7.4 [2]: 1.79
- koff [3]: 0.00596 s⁻¹
B16: BBB00697 (VHH)
VHH: B1 VHH with F29H
notes: as for B2
